Data: PMC12101485 (Science Advances, 2025)

Molecular target: purified human BAG3 protein (human, UniProt O95817 1-575)
Experiment: peptide or protein array

purified human BAG3 protein, sequence (O95817 whole entry): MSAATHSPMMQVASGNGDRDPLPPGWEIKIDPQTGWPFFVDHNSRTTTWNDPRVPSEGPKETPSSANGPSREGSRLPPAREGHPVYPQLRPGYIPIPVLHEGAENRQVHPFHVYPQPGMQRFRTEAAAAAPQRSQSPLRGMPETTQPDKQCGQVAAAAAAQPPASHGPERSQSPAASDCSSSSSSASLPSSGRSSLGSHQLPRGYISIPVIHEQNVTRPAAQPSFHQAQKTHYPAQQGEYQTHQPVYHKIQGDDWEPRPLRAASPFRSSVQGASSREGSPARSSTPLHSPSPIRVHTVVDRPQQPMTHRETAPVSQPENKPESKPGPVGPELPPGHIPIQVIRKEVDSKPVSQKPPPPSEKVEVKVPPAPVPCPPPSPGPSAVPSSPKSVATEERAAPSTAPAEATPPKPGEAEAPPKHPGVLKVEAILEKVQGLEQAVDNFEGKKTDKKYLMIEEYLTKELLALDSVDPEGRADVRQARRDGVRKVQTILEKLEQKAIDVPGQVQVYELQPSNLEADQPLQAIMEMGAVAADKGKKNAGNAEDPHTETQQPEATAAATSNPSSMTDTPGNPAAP

binding result: binds
B1: I465-A494 region of human BACE1 (peptide array spots) (peptide, UniProt P56817 465-494, looked up)
peptide: ICALFMLPLCLMVCQWRCLRCLRQQHDDFA
